Data: publication PMC7960600, “A DARPin targeting activated Mac-1 is a novel diagnostic tool and potential anti-inflammatory agent in myocarditis, sepsis and myocardial infarction” (Basic Research in Cardiology, 2021)

Molecular target: T1, human ICAM-1 (R&D Systems) (human, UniProt P05362 28-480)
T1 construct: ICAM-1, human, recombinant, bought; No catalogue number printed; also called recombinant human ICAM-1; source: bought: R&D Systems
Assay: ELISA; 96-well Maxisorb plates coated with 0.1 µM human or mouse ICAM-1 (or BSA, 30 µM); recombinant human or mouse αM I-domain added; anti-His-HRP, OD 450 nm
Settings: both partners purified

T1 sequence (P05362 28-480): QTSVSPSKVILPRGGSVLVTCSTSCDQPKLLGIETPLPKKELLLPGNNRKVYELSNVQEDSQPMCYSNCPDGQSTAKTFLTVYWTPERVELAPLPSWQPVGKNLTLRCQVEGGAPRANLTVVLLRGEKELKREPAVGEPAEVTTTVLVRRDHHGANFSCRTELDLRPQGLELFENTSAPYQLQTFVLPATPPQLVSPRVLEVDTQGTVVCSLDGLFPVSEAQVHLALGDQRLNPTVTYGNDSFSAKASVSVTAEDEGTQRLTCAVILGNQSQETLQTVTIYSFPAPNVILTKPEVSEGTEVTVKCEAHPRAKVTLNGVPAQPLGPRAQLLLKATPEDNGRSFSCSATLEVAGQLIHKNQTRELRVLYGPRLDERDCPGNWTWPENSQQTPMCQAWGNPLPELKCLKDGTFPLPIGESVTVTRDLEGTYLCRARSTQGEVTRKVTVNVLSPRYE

B1: recombinant human αM I-domain (wild type) (domain or fragment)
chain: RQQPQKFPEALRGCPQEDSDIAFLIDGSGSIIPHDFRRMKEFVSTVMEQLKKSKTLFSLMQYSEEFRIHFTFKEFQNNPNPRSLVKPITQLLGRTHTATGIRKVVRELFNITNGARKNAFKILVVITDGEKFGDPLGYEDVIPEADREGVIRYVIGVGDAFRSEKSRQELNTIASKPPRDHVFQVNNFEALKTIQNQLREKIFAIEGTQTGSSSSFEHEMSQEGFSAAALEHHHHHH
notes: I-domain of the αM chain (CD11b) of human Mac-1; no start methionine or leader is printed; source: E. coli BL21 DE3 (vector pET-20b(+)), purified (Ni beads, dialysed against PBS); not shown: His6, C-terminal, kept
  binding result: binds
